Source: paper PMC9958131 (Nature Communications, 2023)
Substitutions are numbered along the chain they refer to.

B1: P00488 (protein)
chain: MSETSRTAFGGRRAVPPNNSNAAEDDLPTVELQGVVPRGVNLQEFLNVTSVHLFKERWDTNKVDHHTDKYENNKLIVRRGQSFYVQIDFSRPYDPRRDLFRVEYVIGRYPQENKGTYIPVPIVSELQSGKWGAKIVMREDRSVRLSIQSSPKCIVGKFRMYVAVWTPYGVLRTSRNPETDTYILFNPWCEDDAVYLDNEKEREEYVLNDIGVIFYGEVNDIKTRSWSYGQFEDGILDTCLYVMDRAQMDLSGRGNPIKVSRVGSAMVNAKDDEGVLVGSWDNIYAYGVPPSAWTGSVDILLEYRSSENPVRYGQCWVFAGVFNTFLRCLGIPARIVTNYFSAHDNDANLQMDIFLEEDGNVNSKLTKDSVWNYHCWNEAWMTRPDLPVGFGGWQAVDSTPQENSDGMYRCGPASVQAIKHGHVCFQFDAPFVFAEVNSDLIYITAKKDGTHVVENVDATHIGKLIVTKQIGGDGMMDITDTYKFQEGQEEERLALETALM
B2: Q8N1N4 (protein)
chain: MSLSPCRAQRGFSARSACSARSRGRSRGGFSSRGGFSSRSLNSFGGCLEGSRGSTWGSGGRLGVRFGEWSGGPGLSLCPPGGIQEVTINQNLLTPLKIEIDPQFQVVRTQETQEIRTLNNQFASFIDKVRFLEQQNKVLETKWHLLQQQGLSGSQQGLEPVFEACLDQLRKQLEQLQGERGALDAELKACRDQEEEYKSKYEEEAHRRATLENDFVVLKKDVDGVFLSKMELEGKLEALREYLYFLKHLNEEELGQLQTQASDTSVVLSMDNNRYLDFSSIITEVRARYEEIARSSKAEAEALYQTKYQELQVSAQLHGDRMQETKVQISQLHQEIQRLQSQTENLKKQNASLQAAITDAEQRGELALKDAQAKVDELEAALRMAKQNLARLLCEYQELTSTKLSLDVEIATYRRLLEGEECRMSGECTSQVTISSVGGSAVMSGGVGGGLGSTCGLGSGKGSPGSCCTSIVTGGSNIILGSGKDPVLDSCSVSGSSAGS
B3: P01871 (protein)
chain: GSASAPTLFPLVSCENSPSDTSSVAVGCLAQDFLPDSITFSWKYKNNSDISSTRGFPSVLRGGKYAATSQVLLPSKDVMQGTDEHVVCKVQHPNGNKEKNVPLPVIAELPPKVSVFVPPRDGFFGNPRKSKLICQATGFSPRQIQVSWLREGKQVGSGVTTDQVQAEAKESGPTTYKVTSTLTIKESDWLGQSMFTCRVDHRGLTFQQNASSMCVPDQDTAIRVFAIPPSFASIFLTKSTKLTCLVTDLTTYDSVTISWTRQNGEAVKTHTNISESHPNATFSAVGEASICEDDWNSGERFTCTVTHTDLPSPLKQTISRPKGVALHRPDVYLLPPAREQLNLRESATITCLVTGFSPADVFVQWMQRGQPLSPEKYVTSAPMPEPQAPGRYFAHSILTVSEEEWNTGETYTCVVAHEALPNRVTERTVDKSTGKPTLYNVSLVMSDTAGTCY
B4: Fibrinogen b: β chain of human fibrinogen, RA autoantigen; native or citrullinated by PAD2 or PAD4 (protein)
chain: MKRMVSWSFHKLKTMKHLLLLLLCVFLVKSQGVNDNEEGFFSARGHRPLDKKREEAPSLRPAPPPISGGGYRARPAKAAATQKKVERKAPDAGGCLHADPDLGVLCPTGCQLQEALLQQERPIRNSVDELNNNVEAVSQTSSSSFQYMYLLKDLWQKRQKQVKDNENVVNEYSSELEKHQLYIDETVNSNIPTNLRVLRSILENLRSKIQKLESDVSAQMEYCRTPCTVSCNIPVVSGKECEEIIRKGGETSEMYLIQPDSSVKPYRVYCDMNTENGGWTVIQNRQDGSVDFGRKWDPYKQGFGNVATNTDGKNYCGLPGEYWLGNDKISQLTRMGPTELLIEMEDWKGDKVKAHYGGFTVQNEANKYQISVNKYRGTAGNALMDGASQLMGENRTMTIHNGMFFSTYDRDNDGWLTSDPRKQCSKEDGGGWWYNRCHAANPNGRYYWGGQYTWDMAKHGTDDGVVWMNWKGSWYSMRKMSMKIRPFFPQQ
B5: P12035 (protein, UniProt P12035 1-628, looked up)
chain: MSRQASKTSGGGSQGFSGRSAVVSGSSRMSCVAHSGGAGGGAYGFRSGAGGFGSRSLYNLGGNKSISISVAAGGSRAGGFGGGRSSCAFAGGYGGGFGSGYGGGFGGGFGGGRGMGGGFGGAGGFGGAGGFGGAGGFGGPGGFGGSGGFGGPGSLGSPGGFGPGGFPGGIQEVTINQSLLQPLNVEIDPQIGQVKAQEREQIKTLNNKFASFIDKVRFLEQQNKVLETKWNLLQQQGTSSISGTNNLEPLFENHINYLRSYLDNILGERGRLDSELKNMEDLVEDFKKKYEDEINKRTAAENEFVTLKKDVDSAYMNKVELQAKVDALIDEIDFLRTLYDAELSQMQSHISDTSVVLSMDNNRSLDLDSIIAEVRAQYEDIAQRSKAEAEALYQTKLGELQTTAGRHGDDLRNTKSEIIELNRMIQRLRAEIEGVKKQNANLQTAIAEAEQHGEMALKDANAKLQELQAALQQAKDDLARLLRDYQELMNVKLALDVEIATYRKLLEGEEYRMSGECPSAVSISVVSSSTTSASAGGYGGGYGGGMGGGLGGGFSAGGGSGSGFGRGGGGGIGGGFGGGSSGFSGGSGFGSISGARYGVSGGGFSSASNRGGSIKFSQSSQSSQRYSR
modifications: full-length
B6: Q02413 (protein, UniProt Q02413 1-1049, looked up)
chain: MDWSFFRVVAMLFIFLVVVEVNSEFRIQVRDYNTKNGTIKWHSIRRQKREWIKFAAACREGEDNSKRNPIAKIHSDCAANQQVTYRISGVGIDQPPYGIFVINQKTGEINITSIVDREVTPFFIIYCRALNSMGQDLERPLELRVRVLDINDNPPVFSMATFAGQIEENSNANTLVMILNATDADEPNNLNSKIAFKIIRQEPSDSPMFIINRNTGEIRTMNNFLDREQYGQYALAVRGSDRDGGADGMSAECECNIKILDVNDNIPYMEQSSYTIEIQENTLNSNLLEIRVIDLDEEFSANWMAVIFFISGNEGNWFEIEMNERTNVGILKVVKPLDYEAMQSLQLSIGVRNKAEFHHSIMSQYKLKASAISVTVLNVIEGPVFRPGSKTYVVTGNMGSNDKVGDFVATDLDTGRPSTTVRYVMGNNPADLLAVDSRTGKLTLKNKVTKEQYNMLGGKYQGTILSIDDNLQRTCTGTININIQSFGNDDRTNTEPNTKITTNTGRQESTSSTNYDTSTTSTDSSQVYSSEPGNGAKDLLSDNVHFGPAGIGLLIMGFLVLGLVPFLMICCDCGGAPRSAAGFEPVPECSDGAIHSWAVEGPQPEPRDITTVIPQIPPDNANIIECIDNSGVYTNEYGGREMQDLGGGERMTGFELTEGVKTSGMPEICQEYSGTLRRNSMRECREGGLNMNFMESYFCQKAYAYADEDEGRPSNDCLLIYDIEGVGSPAGSVGCCSFIGEDLDDSFLDTLGPKFKKLADISLGKESYPDLDPSWPPQSTEPVCLPQETEPVVSGHPPISPHFGTTTVISESTYPSGPGVLHPKPILDPLGYGNVTVTESYTTSDTLKPSVHVHDNRPASNVVVTERVVGPISGADLHGMLEMPDLRDGSNVIVTERVIAPSSSLPTSLTIHHPRESSNVVVTERVIQPTSGMIGSLSMHPELANAHNVIVTERVVSGAGVTGISGTTGISGGIGSSGLVGTSMGAGSGALSGAGISGGGIGLSSLGGTASIGHMRSSSDHHFNQTIGSASPSTARSRITKYSTVQYSK
modifications: full-length
B7: Q7Z3Y7 (protein)
chain: MSLQFSNGSRHVCLRSGAGSVRPLNGGAGFAGSSACGGSVAGSEFSCALGGGLGSVPGGSHAGGALGNAACIGFAGSEGGLLSGNEKVTMQNLNDRLASYLDNVRALEEANAELERKIKGWYEKYGPGSCRGLDHDYSRYHLTIEDLKNKIISSTTTNANVILQIDNARLAADDFRLKYENELTLHQNVEADINGLRRVLDELTLCRTDQELQYESLSEEMTYLKKNHEEEMKALQCAAGGNVNVEMNAAPGVDLAVLLNNMRAEYEALAEQNRKDAEAWFNEKSASLQQQISHDSGAATFARSQLTEMRRTLQTLEIQLQSLMATKHSLECSLTETESNYCTQLAQIQAQIGALEEQLHQVRTETEGQKLEYEHLLDVKVHLEKEIETYCRLIDGDGNSCSKSKGFGSGSPGNSSKDLSKTTLVKTVVEELDQRGKVLSSRIHSIEEKTSKMTNGKTEQRVPF
B8: F5GXS0 (protein)
chain: MRLLWGLIWASSFFTLSLQKPRLLLFSPSVVHLGVPLSVGVQLQDVPRGQVVKGSVFLRNPSRNNVPCSPKVDFTLSSERDFALLSLQVPLKDAKSCGLHQLLRGPEVQLVAHSPWLKDSLSRTTNIQGINLLFSSRRGHLFLQTDQPIYNPGQRVRYRVFALDQKMRPSTDTITVMVENSHGLRVRKKEVYMPSSIFQDDFVIPDISEPGTWKISARFSDGLESNSSTQFEVKKYVLPNFEVKITPGKPYILTVPGHLDEMQLDIQARYIYGKPVQGVAYVRFGLLDEDGKKTFFRGLESQTKLVNGQSHISLSKAEFQDALEKLNMGITDLQGLRLYVAAAIIESPGGEMEEAELTSWYFVSSPFSLDLSKTKRHLVPGAPFLLQALVREMSGSPASGIPVKVSATVSSPGSVPEVQDIQQNTDGSGQVSIPIIIPQTISELQLSVSAGSPHPAIARLTVAAPPSGGPGFLSIERPDSRPPRVGDTLNLNLRAVGSGA
B9: A0A140TA32 (protein)
chain: B8 chain with S347Y
B10: B1AHL2 (protein)
chain: MERAAPSRRVPLPLLLLGGLALLAAGVDADVLLEACCADGHRMATHQKDCSLPYATESKECRAVGLASLCQDLNGAWAVWKVGRASQAEGTASARAQRRGMVQEQCCHSQLEELHCATGISLANEQDRCATPHGDNASLEATFVKRCCHCCLLGRAAQAQGQSCEYSLMVGYQCGQVFQACCVKSQETGDLDVGGLQETDKIIEVEEEQEDPYLNDRCRGGGPCKQQCRDTGDEVVCSCFVGYQLLSDGVSCEDVNECITGSHSCRLGESCINTVGSFRCQRDSSCGTGYELTEDNSCKDIDECESGIHNCLPDFICQNTLGSFRCRPKLQCKSGFIQDALGNCIDINECLSISAPCPIGHTCINTEGSYTCQKNVPNCGRGYHLNEEGTRCVDVDECAPPAEPCGKGHRCVNSPGSFRCECKTGYYFDGISRMCVDVNECQRYPGRLCGHKCENTLGSYLCSCSVGFRLSVDGRSCEDINECSSSPCSQECANVYGSYQ

What follows are molecules tested on PAD2 and PAD4 (assay: Citrullination site mapping of fibrinogen and vimentin by trypsin digestion and mass spectrometry (protein-level sheet, one search over native, PAD2-cit and PAD4-cit samples)). Settings: modified residues found per protein; Deamidated [R..] = deamidated (citrullinated) arginine positions; trypsin digest, Sequest HT; not split by sample (native, PAD2-citrullinated, PAD4-citrullinated fibrinogen and vimentin).
Format: biochemical, human
Excerpt: Description: Raw mass spectrometry data for proteolytic mapping of fibrinogen, vimentin, and hnRNP A2/B1 by cathepsins B, S, and H (sheets 1-6); citrullination site mapping of fibrinogen and vimentin by trypsin digestion (sheets 7-8); and the natural antigen processing assay with native, PAD2-citrullinated (PAD2-cit), and PAD4-citrullinated (PAD4-cit) fibrinogen (sheets 9-11).

| Molecule | Modifications |
| --- | --- |
| B1 | Deamidated [R6; R202; R675; R697]; Met-loss+Acetyl [N-Term] |
| B2 | Deamidated [R130] |
| B3 | Deamidated [R423] |
| B4 | Deamidated [R53; R60; R72; R74; R158; R196; R199; R224; R246; R267; R285; R334; R376; R395; R410; R421; R436; R445; R478] |
| B5 | Deamidated [R217] |
| B6 | Deamidated [R416; R607] |
| B7 | Deamidated [R96] |
| B8 | Deamidated [R123; R1126] |
| B9 | Deamidated [R123] |
| B10 | Deamidated [R217; R219; R325; R327; R381; R391; R505; R623; R643; R671] |
